In patent US20150158921A1:
Where “and” joins values, the source holds several entries; their conditions need not be identical. Equal values may be shown once.

Assays:
Assay in all cases: cell-based or functional assay
[1] = target: rat α7 nAChR (rat) (UniProt Q05941)
[2] = target: human α6/α3β2β3 nAChR (human) (UniProt P17787)
[3] = target: rat NMDA receptor NR1-2b/NR2B (rat) (UniProt P35439)
[4] = target: rat NMDA receptor NR1-2b/NR2A (rat) (UniProt P35439)
[5] = target: rat α6/α3β4 nAChR (rat) (UniProt P12392)
[6] = target: rat NMDA receptor NR1-2b/NR2C (rat) (UniProt P35439)
[7] = target: human α7 nAChR (human) (UniProt P36544)
[8] = target: rat NMDA receptor NR1-2b/NR2D (rat) (UniProt P35439)
[9] = target: rat α4β2 nAChR (rat) (UniProt P09483)
rat α4β2 nAChR (rat), sequence (P09483 31-630, chain 1 of 2): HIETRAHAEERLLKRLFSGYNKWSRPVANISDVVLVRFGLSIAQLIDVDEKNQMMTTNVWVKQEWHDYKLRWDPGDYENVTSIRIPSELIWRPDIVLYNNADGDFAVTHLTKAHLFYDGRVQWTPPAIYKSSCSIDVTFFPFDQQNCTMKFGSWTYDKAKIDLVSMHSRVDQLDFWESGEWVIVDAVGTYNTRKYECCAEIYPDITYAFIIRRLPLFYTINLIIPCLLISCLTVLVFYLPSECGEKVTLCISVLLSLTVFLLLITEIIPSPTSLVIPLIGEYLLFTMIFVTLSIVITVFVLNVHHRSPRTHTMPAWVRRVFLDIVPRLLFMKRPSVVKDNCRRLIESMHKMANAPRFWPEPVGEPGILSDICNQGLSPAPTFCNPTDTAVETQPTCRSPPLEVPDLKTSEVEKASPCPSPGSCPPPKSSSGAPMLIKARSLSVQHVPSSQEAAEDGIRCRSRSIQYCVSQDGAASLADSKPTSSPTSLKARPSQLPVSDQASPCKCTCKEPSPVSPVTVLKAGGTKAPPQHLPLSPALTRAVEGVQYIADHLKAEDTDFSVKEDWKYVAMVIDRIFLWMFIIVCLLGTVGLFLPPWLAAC
rat α4β2 nAChR (rat), sequence (P12390 25-500, chain 2 of 2, further chain): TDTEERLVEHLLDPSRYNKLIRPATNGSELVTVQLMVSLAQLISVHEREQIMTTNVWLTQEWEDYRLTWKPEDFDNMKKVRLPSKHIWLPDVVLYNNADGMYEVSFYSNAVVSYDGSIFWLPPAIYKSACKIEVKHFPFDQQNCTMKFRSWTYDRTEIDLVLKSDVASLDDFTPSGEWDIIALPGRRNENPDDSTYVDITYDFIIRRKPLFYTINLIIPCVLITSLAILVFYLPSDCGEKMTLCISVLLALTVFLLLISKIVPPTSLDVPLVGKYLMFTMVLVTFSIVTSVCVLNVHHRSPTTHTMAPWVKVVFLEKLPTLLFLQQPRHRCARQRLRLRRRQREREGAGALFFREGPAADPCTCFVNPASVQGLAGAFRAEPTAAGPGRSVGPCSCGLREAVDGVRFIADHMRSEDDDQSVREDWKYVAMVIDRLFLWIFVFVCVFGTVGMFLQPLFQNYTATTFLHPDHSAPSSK

human α6/α3β2β3 nAChR (human), sequence (P17787 26-502, chain 1 of 2): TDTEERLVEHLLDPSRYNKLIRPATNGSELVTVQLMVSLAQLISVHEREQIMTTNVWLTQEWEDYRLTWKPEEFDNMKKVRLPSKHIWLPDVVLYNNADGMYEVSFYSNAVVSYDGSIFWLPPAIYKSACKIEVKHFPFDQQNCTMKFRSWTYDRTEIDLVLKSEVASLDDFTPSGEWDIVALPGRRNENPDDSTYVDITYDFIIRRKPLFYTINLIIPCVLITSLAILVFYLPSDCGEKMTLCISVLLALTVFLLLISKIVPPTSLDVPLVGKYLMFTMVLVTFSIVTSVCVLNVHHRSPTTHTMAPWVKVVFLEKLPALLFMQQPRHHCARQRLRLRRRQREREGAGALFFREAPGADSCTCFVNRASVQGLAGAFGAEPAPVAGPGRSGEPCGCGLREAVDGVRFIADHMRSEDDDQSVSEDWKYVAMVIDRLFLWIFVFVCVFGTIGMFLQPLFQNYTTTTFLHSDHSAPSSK
human α6/α3β2β3 nAChR (human), sequence (Q05901 22-458, chain 2 of 2, further chain): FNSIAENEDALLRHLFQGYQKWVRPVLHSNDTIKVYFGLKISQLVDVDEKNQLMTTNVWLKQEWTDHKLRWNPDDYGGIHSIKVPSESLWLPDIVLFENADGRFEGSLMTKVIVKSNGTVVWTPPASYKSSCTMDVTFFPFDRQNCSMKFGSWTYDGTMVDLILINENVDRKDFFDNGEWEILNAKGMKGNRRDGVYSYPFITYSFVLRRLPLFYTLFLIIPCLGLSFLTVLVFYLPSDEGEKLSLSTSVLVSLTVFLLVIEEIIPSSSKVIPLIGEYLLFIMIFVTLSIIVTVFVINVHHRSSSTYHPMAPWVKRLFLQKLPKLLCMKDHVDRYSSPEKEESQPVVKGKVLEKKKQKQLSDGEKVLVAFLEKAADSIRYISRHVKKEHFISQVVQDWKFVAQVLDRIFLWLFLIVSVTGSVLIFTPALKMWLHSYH
rat α6/α3β4 nAChR (rat), sequence (P12392 21-495): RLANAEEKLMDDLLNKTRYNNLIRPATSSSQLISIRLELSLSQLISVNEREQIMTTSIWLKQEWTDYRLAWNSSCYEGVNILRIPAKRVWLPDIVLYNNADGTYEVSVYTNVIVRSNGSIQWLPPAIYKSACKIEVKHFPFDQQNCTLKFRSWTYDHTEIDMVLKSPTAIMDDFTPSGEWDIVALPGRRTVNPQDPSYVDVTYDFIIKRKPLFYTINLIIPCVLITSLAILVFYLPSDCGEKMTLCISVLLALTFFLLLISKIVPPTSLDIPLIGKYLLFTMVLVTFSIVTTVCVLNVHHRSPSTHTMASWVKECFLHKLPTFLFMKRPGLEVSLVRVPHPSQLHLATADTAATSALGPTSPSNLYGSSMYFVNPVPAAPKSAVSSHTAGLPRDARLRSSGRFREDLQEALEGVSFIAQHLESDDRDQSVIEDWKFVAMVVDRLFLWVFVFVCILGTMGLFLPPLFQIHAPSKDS
rat α7 nAChR (rat), sequence (Q05941 23-502): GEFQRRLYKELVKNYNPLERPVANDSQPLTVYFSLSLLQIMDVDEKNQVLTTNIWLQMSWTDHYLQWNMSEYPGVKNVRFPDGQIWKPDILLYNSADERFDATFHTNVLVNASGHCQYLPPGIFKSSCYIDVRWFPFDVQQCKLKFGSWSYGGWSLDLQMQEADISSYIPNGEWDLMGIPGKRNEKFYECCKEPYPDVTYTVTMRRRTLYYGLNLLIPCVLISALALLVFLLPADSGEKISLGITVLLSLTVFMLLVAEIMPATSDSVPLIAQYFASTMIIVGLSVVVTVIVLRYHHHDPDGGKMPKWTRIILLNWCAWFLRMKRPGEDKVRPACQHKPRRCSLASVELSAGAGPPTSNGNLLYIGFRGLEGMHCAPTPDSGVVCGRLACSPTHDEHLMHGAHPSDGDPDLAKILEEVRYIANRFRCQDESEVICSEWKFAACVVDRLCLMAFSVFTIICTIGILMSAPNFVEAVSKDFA
human α7 nAChR (human), sequence (P36544 23-502): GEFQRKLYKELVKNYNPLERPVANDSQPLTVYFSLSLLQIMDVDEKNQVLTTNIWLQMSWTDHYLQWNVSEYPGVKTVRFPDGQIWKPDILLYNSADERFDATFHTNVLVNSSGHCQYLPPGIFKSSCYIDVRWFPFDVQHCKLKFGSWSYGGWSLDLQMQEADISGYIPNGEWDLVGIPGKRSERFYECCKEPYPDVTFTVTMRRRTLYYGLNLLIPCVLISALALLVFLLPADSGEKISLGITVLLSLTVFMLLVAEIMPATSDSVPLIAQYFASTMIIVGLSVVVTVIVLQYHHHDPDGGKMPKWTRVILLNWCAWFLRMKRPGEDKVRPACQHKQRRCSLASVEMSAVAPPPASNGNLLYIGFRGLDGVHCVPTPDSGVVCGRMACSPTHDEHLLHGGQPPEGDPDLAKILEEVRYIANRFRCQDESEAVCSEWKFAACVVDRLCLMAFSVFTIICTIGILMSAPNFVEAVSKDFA

| Substance | Half-blocking dose IC50, ACh-gated current, oocyte voltage clamp [1] | Half-blocking dose IC50, ACh-gated current, oocyte voltage clamp [2] | Half-blocking dose IC50, NMDA receptor current, oocyte voltage clamp [3] | Half-blocking dose IC50, NMDA receptor current, oocyte voltage clamp [4] | Half-blocking dose IC50, ACh-gated current, oocyte voltage clamp [5] | Half-blocking dose IC50, NMDA receptor current, oocyte voltage clamp [6] | Half-blocking dose IC50, ACh-gated current, oocyte voltage clamp [7] | Half-blocking dose IC50, NMDA receptor current, oocyte voltage clamp [8] | Half-blocking dose IC50, ACh-gated current, oocyte voltage clamp [9] |
| --- | --- | --- | --- | --- | --- | --- | --- | --- | --- |
| αO-conotoxin GeXIVA13 (GeXIVA mature peptide isomer with disulfide bonds I-III, II-IV) | 4960 nM | 141 nM | > 10000 nM and 17000 nM | > 10000 nM | 483 nM | > 10000 nM | 3300 nM | > 10000 nM |  |
| αO-conotoxin GeXIVA14 (GeXIVA mature peptide isomer with disulfide bonds I-IV, II-III) | 1740 nM | 197 nM |  | 7400 nM | 611 nM | > 10000 nM | 865 nM | > 10000 nM | 200 nM |
